This note sets out measurements from US20090202556A1 (Kyowa Kirin, published 2009).

Assay [1] has as its target T1, human CLDN4 (Claudin-4) expressed by human cancer cell lines (Capan-2, HPAF-II, MCF7, HT-29, SW480, 22Rv1, DU … (human, UniProt O14493 1-209)).
T1 construct: Endogenous protein on cell lines; MCF7 is said to express both CLDN3 and CLDN4; also called CLDN4 expressed in breast cancer cells, colorectal cancer cells and prostate cancer cells
T1 sequence: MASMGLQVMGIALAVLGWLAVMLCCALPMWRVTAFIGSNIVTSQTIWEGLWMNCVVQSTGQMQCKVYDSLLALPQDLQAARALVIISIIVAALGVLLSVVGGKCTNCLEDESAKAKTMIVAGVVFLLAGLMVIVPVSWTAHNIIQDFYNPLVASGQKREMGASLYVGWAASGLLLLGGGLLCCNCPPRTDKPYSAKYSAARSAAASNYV
As to the kind of experiment: FCM on live MCF7 cells (express both CLDN3 and CLDN4), 5 µg/ml. As for the experimental part:
(§1) Pancreatic cancer cell line Capan-2 which expresses CLDN4 was used as the evaluation cell of cKM3900, and a breast cancer cell line MCF7 which expresses both of CLDN3 and CLDN4 was used as the evaluation cell of cKM3907. The cells were cultured for 3 to 4 days and peeled off using 0.02% EDTA solution (manufactured by Nacalai Tesque) to recover the resulting cells. The thus recovered cells were washed with PBS and, in order to avoid nonspecific adsorption of antibodies, blocked using BSA-PBS at ice temperature for 30 minutes. The cells were dispensed at 1 to 5×10⁵ cells/100 μl BSA-PBS into a 96-well U bottom plate and centrifuged (1,500 rpm, 5 minutes), the supernatant was removed and then 5 μg/ml of a negative control antibody cKM3034 (anti-FGF8 human chimeric antibody) [US 2004/0091480], an anti-CLDN4 monoclonal antibody KM3900 or KM3907 or an anti-CLDN4 human chimeric antibody cKM3900 or cKM3907 was dispensed as the primary antibody at 100 μl/well and allowed to react at ice temperature for 60 minutes. […] After washing again once with PBS and subsequently suspending in PBS, the fluorescent intensity was measured by FCM (manufactured by Beckman Coulter).

The target of assay [2] is T1, human CLDN4 (Claudin-4) expressed by …. As to the kind of experiment: FCM on live Capan-2 cells (express CLDN4), 5 µg/ml. As for the experimental part: as §1

B1: anti-CLDN4 human chimeric antibody cKM3907 (antibody, V domains shown)
VH: QVQLQQSGPELVKPGASVKISCKASGYAISTSWMNWVKQRPGKGLEWIGRINPGDGNTNYNGKFMAKATLTADKPSSTAYMQLSSLTSEDSAVYFCTRGDRWSGAMDYWGQGTSVTVSS
VL: GNVLTQSPAIMSASPGEKVTMTCRASSSVSSSYLHWYQQKSGASPKLWIYSTSNLASGVPVRFSGSGSGTSYSLTISSVEAEDAATYYCQQYSGFPLTFGAGTKLELK
notes: Human chimeric IgG: mouse V regions of KM3907 joined to the human CH and CL of vector pKANTEX93 (WO 97/10354); also called cKM3907-93 (expression vector)
Take B1: the binding result in assay [1] is “binds”.

B2: anti-CLDN4 human chimeric antibody cKM3900 (antibody, V domains shown)
VH: EVQLQQSGPELVKPGASVKISCKASGYTFTDYYMNWVKQSHGKSLEWIGDVVPNNGVPTYNQKFKGKATLTVDKSSSTAYMELRSLTSEDSAVYYCARPHYYYAGRSGAMDYWGQGTSVTVSS
VL: QIVLTQSPAIMSASLGERVTMTCTASSTVSSTYLHWYQQKPGSSPKLWIYSTSNLASGVPARFSGSGSGTSYSLTISSMEAEDAATYYCHQYHRSPPTFGGGTKLEIK
notes: Human chimeric IgG: mouse V regions of KM3900 joined to the human CH and CL of vector pKANTEX93 (WO 97/10354); also called cKM3900-93 (expression vector)
Regarding B2, in assay [2], the binding result is listed as “binds”.
